Measurements as given in publication PMC4136481.

Molecular target: T1, basic region-leucine zipper (B Zip) domain of the transcription factor CCAAT/enhancer binding protein α (C/EBPα) (rat), P05554
T1 chain: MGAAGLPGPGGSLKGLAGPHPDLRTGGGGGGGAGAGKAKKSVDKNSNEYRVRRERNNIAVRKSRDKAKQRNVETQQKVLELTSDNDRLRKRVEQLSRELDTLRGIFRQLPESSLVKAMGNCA
Assay: FRET or BRET
Conditions: remark: other sources report otherwise

donor fluorescence lifetime τm in the presence of the acceptor, mean: 2.78 ns
B1: basic region-leucine zipper (B Zip) domain of the transcription factor CCAAT/enhancer binding protein α (C/EBPα), P05554 237-358 (domain or fragment)
chain: MGAAGLPGPGGSLKGLAGPHPDLRTGGGGGGGAGAGKAKKSVDKNSNEYRVRRERNNIAVRKSRDKAKQRNVETQQKVLELTSDNDRLRKRVEQLSRELDTLRGIFRQLPESSLVKAMGNCA
